Results as given in PMC9482650, “Quantitative fragmentomics allow affinity mapping of interactomes” (Nature Communications, 2022).

Columns and labels:
Experiment in all cases: holdup assay
Set-up in all cases: key: below the threshold = too weak to quantify, mostly under pKd 3.1 to 4
DLG4_1, P78352 = target: DLG4_1, P78352
PDZD2_2, O15018 = target: T1, PDZD2_2, O15018
T1 sequence (O15018 329-429, limits assumed, looked up): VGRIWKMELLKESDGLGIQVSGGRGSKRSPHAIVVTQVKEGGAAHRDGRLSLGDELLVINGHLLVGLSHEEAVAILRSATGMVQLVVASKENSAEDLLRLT

GORASP2, Q9H8Y8 = target: GORASP2, Q9H8Y8
MAST2, Q6P0Q8 = target: MAST2, Q6P0Q8
DFNB31_3, Q9P202 = target: T2, DFNB31_3, Q9P202
T2 sequence (Q9P202 811-907, limits assumed, looked up): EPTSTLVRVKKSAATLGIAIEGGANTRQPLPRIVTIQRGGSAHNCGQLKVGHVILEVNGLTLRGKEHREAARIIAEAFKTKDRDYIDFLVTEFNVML

MAGI2_5, Q86UL8 = target: MAGI2_5, Q86UL8
SNX27, Q96L92 = target: SNX27, Q96L92
NHERF4_4, Q86UT5 = target: NHERF4_4, Q86UT5
DLG4_3, P78352 = target: DLG4_3, P78352
GRIP2_3, Q9C0E4 = target: GRIP2_3, Q9C0E4
SCRIB_1, Q14160 = target: SCRIB_1, Q14160
LNX1_1, Q8TBB1 = target: LNX1_1, Q8TBB1
Inadl_2, Q8NI35 = target: Inadl_2, Q8NI35
Inadl_8, Q8NI35 = target: Inadl_8, Q8NI35
TJP3_3, O95049 = target: T3, TJP3_3, O95049
T3 sequence (O95049 375-456, limits assumed, looked up): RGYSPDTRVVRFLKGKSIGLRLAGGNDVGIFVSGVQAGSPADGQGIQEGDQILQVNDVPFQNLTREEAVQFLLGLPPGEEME

HTRA4, P83105 = target: T4, HTRA4, P83105
T4 sequence (P83105 378-476, limits assumed, looked up): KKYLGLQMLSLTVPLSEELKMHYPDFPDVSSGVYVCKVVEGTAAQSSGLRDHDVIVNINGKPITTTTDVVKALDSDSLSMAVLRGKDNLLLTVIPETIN

DLG2_2, Q15700 = target: DLG2_2, Q15700
LNX1_3, Q8TBB1 = target: LNX1_3, Q8TBB1
DLG1_3, Q12959 = target: DLG1_3, Q12959
MAGI2_3, Q86UL8 = target: MAGI2_3, Q86UL8
FRMPD2_1, Q68DX3 = target: FRMPD2_1, Q68DX3
FRMPD4, Q14CM0 = target: FRMPD4, Q14CM0
APBA2_1, Q99767 = target: T5, APBA2_1, Q99767
T5 sequence (Q99767 563-664, limits assumed, looked up): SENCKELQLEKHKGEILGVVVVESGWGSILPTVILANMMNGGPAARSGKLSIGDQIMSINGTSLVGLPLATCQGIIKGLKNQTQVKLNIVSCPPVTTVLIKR

SCRIB_2, Q14160 = target: SCRIB_2, Q14160
DLG3_3, Q92796 = target: T6, DLG3_3, Q92796
T6 sequence (Q92796 374-475, limits assumed, looked up): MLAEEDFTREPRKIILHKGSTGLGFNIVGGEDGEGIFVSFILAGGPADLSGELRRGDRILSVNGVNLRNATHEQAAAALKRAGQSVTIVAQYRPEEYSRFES

LIMK2, P53671 = target: LIMK2, P53671
NHERF4_1, Q86UT5-2 = target: NHERF4_1, Q86UT5-2
NHERF3_1, Q5T2W1 = target: T7, NHERF3_1, Q5T2W1
T7 sequence (Q5T2W1 4-100, limits assumed, looked up): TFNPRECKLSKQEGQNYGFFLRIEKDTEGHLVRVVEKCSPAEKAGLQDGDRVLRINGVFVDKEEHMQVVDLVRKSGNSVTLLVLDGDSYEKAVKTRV

GRIP1_7, Q9Y3R0 = target: T8, GRIP1_7, Q9Y3R0
T8 sequence (Q9Y3R0 999-1096, limits assumed, looked up): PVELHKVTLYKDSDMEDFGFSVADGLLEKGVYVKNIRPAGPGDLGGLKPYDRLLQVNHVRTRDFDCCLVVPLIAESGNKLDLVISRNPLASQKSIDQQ

DLG4_2, P78352 = target: DLG4_2, P78352
GOPC, Q9HD26 = target: GOPC, Q9HD26
[1] = plain residues with an end cap or a label only (N-terminal biotin on a linker: none)
[2] = plain residues with an end cap or a label only (N-terminal biotin on a linker: ado-ado)

Chain of LNX1_1, Q8TBB1 (Q8TBB1 261-371): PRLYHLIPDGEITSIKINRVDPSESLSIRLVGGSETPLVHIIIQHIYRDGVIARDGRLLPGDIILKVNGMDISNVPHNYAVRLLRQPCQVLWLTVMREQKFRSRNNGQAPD
Chain of LIMK2, P53671 (P53671 143-248): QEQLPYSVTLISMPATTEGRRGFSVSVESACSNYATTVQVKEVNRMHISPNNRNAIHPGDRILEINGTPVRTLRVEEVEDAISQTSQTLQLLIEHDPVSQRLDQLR
Chain of DLG4_3, P78352 (P78352 306-403): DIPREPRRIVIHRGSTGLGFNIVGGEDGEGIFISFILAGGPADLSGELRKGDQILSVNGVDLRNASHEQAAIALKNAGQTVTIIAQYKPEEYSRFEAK
Chain of MAGI2_3, Q86UL8 (Q86UL8 600-682): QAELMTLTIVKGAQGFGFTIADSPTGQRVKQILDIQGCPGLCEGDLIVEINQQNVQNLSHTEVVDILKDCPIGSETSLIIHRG
Chain of DLG4_1, P78352 (P78352 62-152): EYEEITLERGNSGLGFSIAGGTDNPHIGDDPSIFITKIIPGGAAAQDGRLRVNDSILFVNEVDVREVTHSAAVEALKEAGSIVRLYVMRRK
Chain of LNX1_3, Q8TBB1 (Q8TBB1 500-596): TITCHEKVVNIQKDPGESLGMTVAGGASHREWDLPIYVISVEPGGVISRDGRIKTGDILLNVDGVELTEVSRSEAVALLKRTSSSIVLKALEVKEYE
Chain of NHERF4_4, Q86UT5 (Q86UT5 464-550): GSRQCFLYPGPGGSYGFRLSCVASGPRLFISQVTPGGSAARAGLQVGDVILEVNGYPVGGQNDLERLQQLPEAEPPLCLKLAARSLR
Chain of SCRIB_2, Q14160 (Q14160 857-960): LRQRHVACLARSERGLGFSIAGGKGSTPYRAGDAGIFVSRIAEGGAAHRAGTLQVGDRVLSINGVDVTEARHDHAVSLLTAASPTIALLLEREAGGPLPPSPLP
Chain of FRMPD2_1, Q68DX3 (Q68DX3 770-861): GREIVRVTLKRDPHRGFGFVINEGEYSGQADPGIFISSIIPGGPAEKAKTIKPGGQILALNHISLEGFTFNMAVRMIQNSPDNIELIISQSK
Chain of GRIP2_3, Q9C0E4 (Q9C0E4 238-339): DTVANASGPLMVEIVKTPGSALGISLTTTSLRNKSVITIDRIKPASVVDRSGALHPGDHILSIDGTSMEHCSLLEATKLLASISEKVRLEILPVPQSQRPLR
Chain of Inadl_2, Q8NI35 (Q8NI35 238-335): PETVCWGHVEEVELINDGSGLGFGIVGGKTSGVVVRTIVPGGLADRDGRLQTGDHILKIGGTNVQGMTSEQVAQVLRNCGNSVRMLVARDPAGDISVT
Chain of MAST2, Q6P0Q8 (Q6P0Q8 1099-1202): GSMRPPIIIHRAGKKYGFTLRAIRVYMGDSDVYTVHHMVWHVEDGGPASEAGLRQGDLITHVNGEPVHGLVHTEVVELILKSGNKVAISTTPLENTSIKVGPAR
Chain of MAGI2_5, Q86UL8 (Q86UL8 915-1017): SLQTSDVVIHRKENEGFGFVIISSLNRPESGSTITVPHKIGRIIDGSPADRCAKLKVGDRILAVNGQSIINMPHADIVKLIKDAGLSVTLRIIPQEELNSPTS
Chain of Inadl_8, Q8NI35 (Q8NI35 1425-1530): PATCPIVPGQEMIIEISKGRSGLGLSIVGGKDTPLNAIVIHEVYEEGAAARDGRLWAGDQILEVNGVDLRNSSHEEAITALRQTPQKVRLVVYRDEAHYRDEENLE
Chain of DLG1_3, Q12959 (Q12959 457-571): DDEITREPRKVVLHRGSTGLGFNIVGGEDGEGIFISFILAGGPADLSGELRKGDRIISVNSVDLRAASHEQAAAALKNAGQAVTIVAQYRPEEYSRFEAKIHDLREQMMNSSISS
Chain of DLG2_2, Q15700 (Q15700 189-283): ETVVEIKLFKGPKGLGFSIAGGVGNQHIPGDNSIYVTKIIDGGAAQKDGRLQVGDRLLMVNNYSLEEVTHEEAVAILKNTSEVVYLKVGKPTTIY
Chain of FRMPD4, Q14CM0 (Q14CM0 67-160): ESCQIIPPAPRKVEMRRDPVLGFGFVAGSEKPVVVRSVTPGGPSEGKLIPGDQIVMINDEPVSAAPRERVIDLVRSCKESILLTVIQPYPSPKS
Chain of DLG4_2, P78352 (P78352 155-259): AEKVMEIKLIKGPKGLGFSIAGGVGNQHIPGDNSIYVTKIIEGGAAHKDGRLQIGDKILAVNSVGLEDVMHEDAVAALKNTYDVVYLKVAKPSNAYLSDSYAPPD
Chain of SCRIB_1, Q14160 (Q14160 718-814): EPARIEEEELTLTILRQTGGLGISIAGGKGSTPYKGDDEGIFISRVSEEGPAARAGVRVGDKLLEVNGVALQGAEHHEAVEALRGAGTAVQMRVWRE
Chain of NHERF4_1, Q86UT5-2 (Q86UT5 other isoform, or with tags, fused parts or gaps): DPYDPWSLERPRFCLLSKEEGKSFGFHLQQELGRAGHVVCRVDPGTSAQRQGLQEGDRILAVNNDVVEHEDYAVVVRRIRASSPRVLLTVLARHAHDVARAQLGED

With DSKPPLPPDEWV [MERS-E, K9N5R3] the pKd (DLG4_1, P78352; [1]) was 3.62, the pKd (PDZD2_2, O15018; [1]) was 5.11 and the pKd (GORASP2, Q9H8Y8; [1]) was 4.57. The pKd (MAST2, Q6P0Q8; [1]) was 3.66, the pKd (DFNB31_3, Q9P202; [1]) was “below the threshold” and the pKd (MAGI2_5, Q86UL8; [1]) was “below the threshold”. For the same binder, the pKd (SNX27, Q96L92; [1]) was 4.56, the pKd (NHERF4_4, Q86UT5; [1]) was “below the threshold” and the pKd (DLG4_3, P78352; [1]) was 3.64. For the same binder, the pKd (GRIP2_3, Q9C0E4; [1]) was 3.52, the pKd (SCRIB_1, Q14160; [1]) was 4.52 and the pKd (LNX1_1, Q8TBB1; [1]) was “below the threshold”. The pKd (Inadl_2, Q8NI35; [1]) was “below the threshold”, the pKd (Inadl_8, Q8NI35; [1]) was 3.55 and the pKd (TJP3_3, O95049; [1]) was 4.83. For the same binder, the pKd (HTRA4, P83105; [1]) was 3.68, the pKd (DLG2_2, Q15700; [1]) was “below the threshold” and the pKd (LNX1_3, Q8TBB1; [1]) was “below the threshold”. The pKd (DLG1_3, Q12959; [1]) was 3.5, the pKd (MAGI2_3, Q86UL8; [1]) was “below the threshold” and the pKd (FRMPD2_1, Q68DX3; [1]) was “below the threshold”. The pKd (FRMPD4, Q14CM0; [1]) was 4.07, the pKd (APBA2_1, Q99767; [1]) was “below the threshold” and the pKd (SCRIB_2, Q14160; [1]) was 3.58. The pKd (DLG3_3, Q92796; [1]) was 3.58, the pKd (LIMK2, P53671; [1]) was “below the threshold” and the pKd (NHERF4_1, Q86UT5-2; [1]) was “below the threshold”. For the same binder, the pKd (NHERF3_1, Q5T2W1; [1]) was “below the threshold”, the pKd (GRIP1_7, Q9Y3R0; [1]) was 3.88 and the pKd (DLG4_2, P78352; [1]) was 3.59. For the same binder, the pKd (GOPC, Q9HD26; [1]) was 3.92.

In the case of LHLHGTGIQV [EPHA7, Q15375], the pKd (DLG4_1, P78352; [2]) is reported as 3.73, the pKd (PDZD2_2, O15018; [2]) is reported as “below the threshold” and the pKd (GORASP2, Q9H8Y8; [2]) is reported as 4.46. For the same binder, the pKd (MAST2, Q6P0Q8; [2]) was 4.63, the pKd (DFNB31_3, Q9P202; [2]) was 3.99 and the pKd (MAGI2_5, Q86UL8; [2]) was “below the threshold”. For the same binder, the pKd (SNX27, Q96L92; [2]) was 3.53, the pKd (NHERF4_4, Q86UT5; [2]) was 4.07 and the pKd (DLG4_3, P78352; [2]) was “below the threshold”. The pKd (GRIP2_3, Q9C0E4; [2]) was “below the threshold”, the pKd (SCRIB_1, Q14160; [2]) was “below the threshold” and the pKd (LNX1_1, Q8TBB1; [2]) was “below the threshold”. For the same binder, the pKd (Inadl_2, Q8NI35; [2]) was “below the threshold”, the pKd (Inadl_8, Q8NI35; [2]) was “below the threshold” and the pKd (TJP3_3, O95049; [2]) was “below the threshold”. The pKd (HTRA4, P83105; [2]) was 4.1, the pKd (DLG2_2, Q15700; [2]) was “below the threshold” and the pKd (LNX1_3, Q8TBB1; [2]) was 3.48. For the same binder, the pKd (DLG1_3, Q12959; [2]) was 3.69, the pKd (MAGI2_3, Q86UL8; [2]) was 3.63 and the pKd (FRMPD2_1, Q68DX3; [2]) was 5.03. The pKd (FRMPD4, Q14CM0; [2]) was 3.97, the pKd (APBA2_1, Q99767; [2]) was “below the threshold” and the pKd (SCRIB_2, Q14160; [2]) was “below the threshold”. For the same binder, the pKd (DLG3_3, Q92796; [2]) was 3.51, the pKd (LIMK2, P53671; [2]) was “below the threshold” and the pKd (NHERF4_1, Q86UT5-2; [2]) was 3.85. The pKd (NHERF3_1, Q5T2W1; [2]) was “below the threshold”, the pKd (GRIP1_7, Q9Y3R0; [2]) was 3.49 and the pKd (DLG4_2, P78352; [2]) was 3.75. The pKd (GOPC, Q9HD26; [2]) was “below the threshold”.
